Laboratory results from doi:10.1101/798371 (bioRxiv, 2019).
Where “and” joins values, the source holds several entries; their conditions need not be identical. Equal entries are not always repeated. Where two headings read alike, the source gives them in different places.

B1: Tom40 (natural protein, S. cerevisiae, UniProt P23644 1-387, looked up)
chain: MSAPTPLAEASQIPTIPALSPLTAKQSKGNFFSSNPISSFVVDTYKQLHSHRQSLELVNPGTVENLNKEVSRDVFLSQYFFTGLRADLNKAFSMNPAFQTSHTFSIGSQALPKYAFSALFANDNLFAQGNIDNDLSVSGRLNYGWDKKNISKVNLQISDGQPTMCQLEQDYQASDFSVNVKTLNPSFSEKGEFTGVAVASFLQSVTPQLALGLETLYSRTDGSAPGDAGVSYLTRYVSKKQDWIFSGQLQANGALIASLWRKVAQNVEAGIETTLQAGMVPITDPLMGTPIGIQPTVEGSTTIGAKYEYRQSVYRGTLDSNGKVACFLERKVLPTLSVLFCGEIDHFKNDTKIGCGLQFETAGNQELLMLQQGLDADGNPLQALPQL
B5: Tom22 (natural protein, S. cerevisiae, UniProt P49334 1-152, looked up)
chain: MVELTEIKDDVVQLDEPQFSRNQAIVEEKASATNNDVVDDEDDSDSDFEDEFDENETLLDRIVALKDIVPPGKRQTISNFFGFTSSFVRNAFTKSGNLAWTLTTTALLLGVPLSLSILAEQQLIEMEKTFDLQSDANNILAQGEKDAAATAN

Legend:
cryo-EM structure [1] = biological target: the molecule itself; assay: cryo-EM structure
Tom40 [2] = biological target: B1; assay: cryo-EM structure
Tom22 = biological target: B5; assay: cryo-EM structure
cryo-EM structure [3] = biological target: the molecule itself; assay: cryo-EM structure; remark: listed apart in the source
SEC = biological target: the molecule itself; assay: SEC
Tom40 [4] = biological target: B1; assay: cryo-EM structure; remark: listed apart in the source

B1: binds (cryo-EM structure [1]).

MFGLPQQEVSEEEKRAHQEQTEKTLKQAAYVAAFLWVSPMIWHLVKKQWK (natural protein, S. cerevisiae, UniProt P80967 1-50, looked up) [Tom5]: binds (Tom40 [2]); binds (Tom22).

B2: Tom6 (natural protein, S. cerevisiae, UniProt P33448 1-61, looked up)
chain: MDGMFAMPGAAAGAASPQQPKSRFQAFKESPLYTIALNGAFFVAGVAFIQSPLMDMLAPQL
B2: binds (Tom40 [2]); binds (cryo-EM structure [3]).

B3: Tom7 (natural protein, S. cerevisiae, UniProt P53507 1-60, looked up)
chain: MSFLPSFILSDESKERISKILTLTHNVAHYGWIPFVLYLGWAHTSNRPNFLNLLSPLPSV
B3: binds (Tom40 [2]).

B4: core TOM complex (monomeric unit: Tom40, Tom22, Tom5, Tom6, Tom7) (complex, S. cerevisiae)
chain 1: MSAPTPLAEASQIPTIPALSPLTAKQSKGNFFSSNPISSFVVDTYKQLHSHRQSLELVNPGTVENLNKEVSRDVFLSQYFFTGLRADLNKAFSMNPAFQTSHTFSIGSQALPKYAFSALFANDNLFAQGNIDNDLSVSGRLNYGWDKKNISKVNLQISDGQPTMCQLEQDYQASDFSVNVKTLNPSFSEKGEFTGVAVASFLQSVTPQLALGLETLYSRTDGSAPGDAGVSYLTRYVSKKQDWIFSGQLQANGALIASLWRKVAQNVEAGIETTLQAGMVPITDPLMGTPIGIQPTVEGSTTIGAKYEYRQSVYRGTLDSNGKVACFLERKVLPTLSVLFCGEIDHFKNDTKIGCGLQFETAGNQELLMLQQGLDADGNPLQALPQL
chain 2: MVELTEIKDDVVQLDEPQFSRNQAIVEEKASATNNDVVDDEDDSDSDFEDEFDENETLLDRIVALKDIVPPGKRQTISNFFGFTSSFVRNAFTKSGNLAWTLTTTALLLGVPLSLSILAEQQLIEMEKTFDLQSDANNILAQGEKDAAATAN
chain 3: MFGLPQQEVSEEEKRAHQEQTEKTLKQAAYVAAFLWVSPMIWHLVKKQWK
chain 4: MDGMFAMPGAAAGAASPQQPKSRFQAFKESPLYTIALNGAFFVAGVAFIQSPLMDMLAPQL
chain 5: MSFLPSFILSDESKERISKILTLTHNVAHYGWIPFVLYLGWAHTSNRPNFLNLLSPLPSV
B4 was tested, and the “stoichiometry N” value (cryo-EM structure [3]) was 4 and 3 and the “stoichiometry N” value (SEC) was 2.

B5: binds (Tom40 [4]).
